A value given as a limit tells only on which side of the number the result lay.

Series [1] concerns the target T1, Integrin alpha4beta1 (VLA-4, CD49d/CD29), recombinant heterodimer (Homo sapiens, UniProt P13612;P05556 P13612:34-977,P05556:21-728). In words: BLI; 25 C, immobilised biotin-aptamer. The following applies: tags: His-tag; ACROBiosystems IT1-H52W1; label: biotin, FAM or Cy5. The method, then:
(§1) Bio-layer interferometry. BLI studies were performed on an Octet RED96 instrument (Sartorius of Göttingen, Germany) using streptavidin biosensors (Sartorius) as previously described (Cheng et al. (2022) J Am Chem Soc, 144, 13851-64). Briefly, wash buffer supplemented with 1% BSA, 0.1 mg/mL yeast tRNA, 0.1 mg/mL salmon sperm DNA, and 0.01% Tween-20 (Sigma) was used as the sample buffer for all steps. All steps were performed at 25° C. with sample agitation at 1000 rpm. Biosensors were allowed to equilibrate in buffer for at least 10 min before loading. For sensor loading, 50 nM biotinylated aptamers were loaded until a 0.5 nm threshold before performing rinse and baseline steps in buffer alone for 100 s each. […] Kinetic constants were calculated for datasets with several analyte concentrations by conducting a global fit of the association and dissociation curves to a 1:1 ligand binding model. The quality of each fit was evaluated using R2 and χ2 values, which are listed in Table 6 for the appropriate datasets along with the calculated kinetic constants.
(§2) Table 6 lists BLI measured affinity kinetics of immobilized HR7A1, HR7A1.Tr1, and HR7A1.Tr2 aptamer binding to recombinant α4β1 protein. […] Values were calculated by performing a global fit of the binding curve data in FIG. 2B to a 1:1 binding model. […] The goodness of fit was evaluated by a reduced chi-square (χ2) and a R2 value approaching 1.
A general note: BLI is a label-free optical method that tracks binding on a fibre tip over time.

Series [2] addresses T2, Integrin alpha4beta1 on Jurkat cells (clone E6-1) (Homo sapiens, UniProt P13612;P05556 P13612:34-1032,P05556:21-798). In words: competition; 50% displacement of 20 nM Cy5-HR7A1 on Jurkat cells. The following applies: tags: endogenous, ATCC cell line; label: Cy5. The method, then: (§3) Aptamer binding studies. While suspension H9, Jurkat, Raji, and K562 cells were harvested normally, adherent B16F10 cells were non-enzymatically dissociated with Versene (Gibco) prior to binding studies to prevent possible enzymatic cleavage of the α4β1 integrin that would affect aptamer binding. Once harvested, cells (2×10⁵) were pre-stained with Zombie Violet in DPBS for 15 min at room temperature, washed once with wash buffer supplemented with 1% BSA, and incubated with 100 μL folded FAM-labeled ssDNA pools or FAM/Cy5-labeled individual aptamers for 30 min at 4° C. in binding buffer at the indicated concentrations. For antibody co-staining, antibodies were added to the incubation with aptamers. For competitive binding studies, unique aptamers with different fluorescent labels were co-incubated on cells at different concentrations. Cells were then washed twice with 200 μL wash buffer 1% BSA to remove excess staining reagent. If biotinylated aptamers were used for primary staining, cells received a secondary stain with 100 μL fluorescently labeled streptavidin in wash buffer 1% BSA for 20 min at 4° C. and then washed twice as before. Lastly, stained cells were lightly fixed in 200 μL wash buffer 1% BSA with 0.1-0.5% perfluoroalkoxy alkane (PFA) before immediate analysis via flow cytometry as described above. […]

In series [3] the target is T2, Integrin alpha4beta1 on Jurkat cells …. Put plainly: competition; 50% block of 100 nM VCAM-1 binding to Jurkat cells. As to conditions: tags: endogenous, ATCC cell line; label: biotin, FAM or Cy5. The method, then:
CS1 peptide and VCAM-1 competition. For competition studies involving the CS1 peptide, a Tris-based wash buffer comprised of TBS (Fisher) supplemented with 4.5 g/L glucose, 5.5 mM MgCl², 0.9 mM CaCl², and 10 mM MnCl² was used instead of the normal DPBS-based wash buffer described above. Mn²⁺ has previously been described to support α4β1 binding to the fibronectin CS1 peptide (Masumoto and Hemler. (1993) Journal of Biological Chemistry, 268, 228-234), and as MnCl² precipitates in DPBS, a Tris-based wash buffer was thus required. Peptide stocks were prepared fresh in the Tris-based wash buffer at 20 mM prior to the competition studies and the exact concentration was measured using a QuantTag Biotin Quantification Kit (Vector Labs of Newark, CA). Live/dead and aptamer staining were carried out as described above, except cells were pre-blocked with varying concentrations of the SCR-b or CS1-b peptide in Tris-based wash buffer supplemented with 1% BSA (w/v) and 0.1 mg/mL yeast tRNA for 30 min at room temperature prior to spiking in aptamer and incubating for another 30 min at 4° C. As Tris can neutralize PFA, cells were resuspended in regular wash buffer 1% BSA with 0.5% PFA after washing before analyzing on the flow cytometer. […]

Series [4] has the same target. Put plainly: flow; apparent, 4 C. As to conditions: tags: endogenous, ATCC cell line. The method, then: (§4) Binding assay: Jurkat cells were washed with DPBS and incubated with Zombie Violet (1:500, 10⁷ cells/mL, BioLegend) in DPBS for live/dead staining for 15 min at room temperature. After live/dead staining, cells were washed with aptamer washed buffer supplemented with 1% BSA to quench the remaining dye and aliquoted in a 96-well plate at 1-2e5 cells/well. For aptamer staining, cells were incubated with annealed aptamers at the indicated concentrations in 100 μL binding buffer (aptamer wash buffer supplemented with 1% BSA and 0.1 mg/ml yeast RNA) for 20-30 min at 4° C. For binding analysis at different temperatures, aptamers (diluted in binding buffer) and cells were separately incubated at the indicated temperatures for 20 min for equilibration. The equilibrated aptamer solutions were then added to the cells and allowed to incubate for 20-30 min. After incubation, cells were washed 2 times with 200 μL aptamer wash buffer supplemented with 1% BSA, resuspended in 200 μL aptamer wash buffer supplemented with 1% BSA and 0.2% PFA, and analyzed on an Attune NxT cytometer.

Series [5] has the same target. Put plainly: flow; apparent, 4 C; better retained binding at 20 and 37 C than parent. As to conditions: tags: endogenous, ATCC cell line. The method, then: as §4
The target of series [6] is T1, Integrin alpha4beta1 (VLA-4, …). Put plainly: BLI; negative control aptamer, 100 nM protein. As to conditions: tags: His-tag; ACROBiosystems IT1-H52W1; label: biotin. The method, then: as §1, with “each. Afterwards, aptamer-loaded sensors were associated with His-tagged human α4β1 (IT1-H52W1, ACROBiosystems of Beijing, China) or His-tagged human α4β7 (IT7-H52W4, ACROBiosystems) at concentrations and times indicated in the figures and captions. Lastly, sensors were transferred to wells containing buffer alone for dissociation.” for “each.”, “constants. […]” for “constants.”

Series [7] addresses Integrin alpha4beta7, recombinant heterodimer (Homo sapiens, UniProt P13612;P26010 P13612:34-977,P26010:20-723). In words: BLI; negative control aptamer, 100 nM protein. The following applies: tags: His-tag; ACROBiosystems IT7-H52W4; label: biotin. The method, then: as §1, with “each. Afterwards, aptamer-loaded sensors were associated with His-tagged human α4β1 (IT1-H52W1, ACROBiosystems of Beijing, China) or His-tagged human α4β7 (IT7-H52W4, ACROBiosystems) at concentrations and times indicated in the figures and captions. Lastly, sensors were transferred to wells containing buffer alone for dissociation.” for “each.”, “constants. […]” for “constants.”

Series [8] concerns the target Integrin alpha4beta1 on B16F10 melanoma cells (Mus musculus, UniProt Q00651;P09055 Q00651:41-1039,P09055:21-798). In words: flow; apparent, 4 C. As to conditions: tags: endogenous, ATCC cell line; label: biotin, FAM or Cy5; motif on top of a stem formed by flanking constant regions (predicted). The method, then: as §3, with “reagent.” for “reagent. If biotinylated aptamers were used for primary staining, cells received a secondary stain with 100 μL fluorescently labeled streptavidin in wash buffer 1% BSA for 20 min at 4° C. and then washed twice as before. Lastly, stained cells were lightly fixed in 200 μL wash buffer 1% BSA with 0.1-0.5% perfluoroalkoxy alkane (PFA) before immediate analysis via flow cytometry as described above.”
FIGS. 16A, 16B illustrate that HR7A1 binds mouse α4β1. […] (16B) Flow cytometry binding curves of Cy5-labeled CD8.A3t, HR7A1, and Sgc4f to B16F10 cells, as determined by MFI. […] KD values were calculated by averaging the individual regression values of the independent experiments. […]

The target in series [9] is T2, Integrin alpha4beta1 on Jurkat cells …. Put plainly: competition; 50% displacement of 20 nM Cy5-Sgc4f on Jurkat cells. The following applies: tags: endogenous, ATCC cell line; label: biotin, FAM or Cy5; motif on top of a stem formed by flanking constant regions (predicted). The method, then:
as §3

Series [10] deals with T1, Integrin alpha4beta1 (VLA-4, …). In words: BLI; 25 C, immobilised biotin-aptamer, DPBS Ca/Mg + 5 mM MgCl2 + BSA/tRNA/ssDNA. The following applies: tags: His-tag; ACROBiosystems IT1-H52W1; label: biotin, FAM or Cy5; motif on top of a stem formed by flanking constant regions (predicted). The method, then:
as §1, §2

T2 sequence (P13612 34-1032, chain 1 of 2): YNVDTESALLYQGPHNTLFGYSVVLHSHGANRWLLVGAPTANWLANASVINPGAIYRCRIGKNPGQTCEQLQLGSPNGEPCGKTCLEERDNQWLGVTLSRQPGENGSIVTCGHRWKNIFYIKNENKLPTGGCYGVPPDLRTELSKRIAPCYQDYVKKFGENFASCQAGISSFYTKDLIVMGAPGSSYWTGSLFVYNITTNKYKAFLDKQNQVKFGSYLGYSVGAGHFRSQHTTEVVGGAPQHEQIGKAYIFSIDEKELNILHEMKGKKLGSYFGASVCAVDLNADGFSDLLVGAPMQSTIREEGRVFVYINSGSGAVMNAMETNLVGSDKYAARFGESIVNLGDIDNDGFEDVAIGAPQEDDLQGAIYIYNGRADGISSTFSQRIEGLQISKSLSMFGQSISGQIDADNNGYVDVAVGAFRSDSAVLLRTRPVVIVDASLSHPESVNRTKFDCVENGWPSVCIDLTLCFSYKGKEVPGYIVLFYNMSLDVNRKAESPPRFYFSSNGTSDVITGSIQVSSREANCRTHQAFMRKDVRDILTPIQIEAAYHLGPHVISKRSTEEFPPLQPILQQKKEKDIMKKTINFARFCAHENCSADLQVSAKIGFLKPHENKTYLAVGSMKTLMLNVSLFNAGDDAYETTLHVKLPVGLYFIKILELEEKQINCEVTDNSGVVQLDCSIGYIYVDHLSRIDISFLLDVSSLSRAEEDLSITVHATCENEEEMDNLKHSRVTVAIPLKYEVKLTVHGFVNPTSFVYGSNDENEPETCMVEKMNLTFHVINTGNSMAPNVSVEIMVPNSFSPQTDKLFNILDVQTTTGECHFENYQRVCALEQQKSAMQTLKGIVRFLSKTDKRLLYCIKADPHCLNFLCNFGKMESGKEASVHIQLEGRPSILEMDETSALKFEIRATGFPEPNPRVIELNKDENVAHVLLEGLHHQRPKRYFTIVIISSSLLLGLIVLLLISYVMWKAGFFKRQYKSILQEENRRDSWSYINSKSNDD
T2 sequence (P05556 21-798, chain 2 of 2): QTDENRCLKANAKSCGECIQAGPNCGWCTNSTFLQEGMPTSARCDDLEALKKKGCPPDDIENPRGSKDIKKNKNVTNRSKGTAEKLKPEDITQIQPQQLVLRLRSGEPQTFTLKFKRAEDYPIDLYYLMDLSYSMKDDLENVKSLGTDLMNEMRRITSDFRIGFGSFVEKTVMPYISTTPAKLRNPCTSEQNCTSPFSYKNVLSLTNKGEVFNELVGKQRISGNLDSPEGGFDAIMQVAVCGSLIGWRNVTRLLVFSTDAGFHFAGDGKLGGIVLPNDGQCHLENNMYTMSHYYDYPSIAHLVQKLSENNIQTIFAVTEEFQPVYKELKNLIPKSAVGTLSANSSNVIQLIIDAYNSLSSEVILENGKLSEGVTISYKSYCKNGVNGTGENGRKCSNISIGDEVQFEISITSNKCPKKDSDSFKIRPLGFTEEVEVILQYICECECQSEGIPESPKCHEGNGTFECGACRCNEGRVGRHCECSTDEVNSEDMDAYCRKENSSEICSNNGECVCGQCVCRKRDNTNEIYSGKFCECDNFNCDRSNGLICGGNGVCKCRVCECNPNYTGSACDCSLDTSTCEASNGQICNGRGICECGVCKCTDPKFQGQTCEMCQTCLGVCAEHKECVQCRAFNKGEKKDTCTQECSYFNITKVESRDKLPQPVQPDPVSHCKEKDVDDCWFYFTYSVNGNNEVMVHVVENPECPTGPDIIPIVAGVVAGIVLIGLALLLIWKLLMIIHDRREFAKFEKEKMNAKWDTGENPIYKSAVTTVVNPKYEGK
T1 sequence (P13612 34-977, chain 1 of 2): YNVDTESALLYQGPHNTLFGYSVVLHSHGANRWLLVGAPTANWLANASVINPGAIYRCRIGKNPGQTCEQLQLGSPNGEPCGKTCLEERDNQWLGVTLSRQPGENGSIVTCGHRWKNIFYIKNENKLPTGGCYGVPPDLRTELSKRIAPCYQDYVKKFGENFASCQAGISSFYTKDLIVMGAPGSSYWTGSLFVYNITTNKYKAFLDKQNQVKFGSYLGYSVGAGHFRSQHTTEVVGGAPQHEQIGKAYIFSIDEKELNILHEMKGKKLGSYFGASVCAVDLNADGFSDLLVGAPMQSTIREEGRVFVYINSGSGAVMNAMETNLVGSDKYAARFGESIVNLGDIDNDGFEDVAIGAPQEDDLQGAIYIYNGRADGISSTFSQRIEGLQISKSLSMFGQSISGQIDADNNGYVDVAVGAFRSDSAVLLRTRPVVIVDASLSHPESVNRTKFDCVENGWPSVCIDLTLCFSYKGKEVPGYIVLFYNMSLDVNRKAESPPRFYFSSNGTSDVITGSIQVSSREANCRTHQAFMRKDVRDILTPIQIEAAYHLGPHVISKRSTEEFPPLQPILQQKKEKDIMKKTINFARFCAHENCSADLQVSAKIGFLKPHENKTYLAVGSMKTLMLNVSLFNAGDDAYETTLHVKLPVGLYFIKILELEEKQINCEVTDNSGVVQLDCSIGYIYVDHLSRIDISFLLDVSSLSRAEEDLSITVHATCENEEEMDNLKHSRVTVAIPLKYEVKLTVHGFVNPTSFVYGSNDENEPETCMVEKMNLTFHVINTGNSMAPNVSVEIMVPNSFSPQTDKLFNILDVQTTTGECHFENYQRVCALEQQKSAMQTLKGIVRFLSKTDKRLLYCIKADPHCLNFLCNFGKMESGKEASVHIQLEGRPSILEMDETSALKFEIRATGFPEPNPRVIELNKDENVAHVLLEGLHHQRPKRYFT
T1 sequence (P05556 21-728, chain 2 of 2): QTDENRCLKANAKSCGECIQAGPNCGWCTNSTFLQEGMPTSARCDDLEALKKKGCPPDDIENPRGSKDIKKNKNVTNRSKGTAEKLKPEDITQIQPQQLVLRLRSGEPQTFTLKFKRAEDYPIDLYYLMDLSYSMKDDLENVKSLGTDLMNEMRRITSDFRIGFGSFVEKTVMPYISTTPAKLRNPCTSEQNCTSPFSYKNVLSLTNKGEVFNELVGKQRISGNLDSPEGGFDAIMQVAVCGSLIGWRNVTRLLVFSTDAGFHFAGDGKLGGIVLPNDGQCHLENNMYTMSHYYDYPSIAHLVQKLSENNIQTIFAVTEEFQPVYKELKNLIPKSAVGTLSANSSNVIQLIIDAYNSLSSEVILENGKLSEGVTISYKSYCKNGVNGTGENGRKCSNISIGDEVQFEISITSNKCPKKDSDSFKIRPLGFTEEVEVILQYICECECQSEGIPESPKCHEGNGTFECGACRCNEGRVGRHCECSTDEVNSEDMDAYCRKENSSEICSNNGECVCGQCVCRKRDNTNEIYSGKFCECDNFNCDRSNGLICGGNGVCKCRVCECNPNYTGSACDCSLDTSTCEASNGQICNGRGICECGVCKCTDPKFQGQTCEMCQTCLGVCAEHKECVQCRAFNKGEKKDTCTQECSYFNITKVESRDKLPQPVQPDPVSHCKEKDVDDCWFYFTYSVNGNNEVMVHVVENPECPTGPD
Chain of Integrin alpha4beta7, recombinant heterodimer (P13612 34-977, chain 1 of 2): as the sequence (P13612 34-977, chain 1 of 2) above
Chain of Integrin alpha4beta7, recombinant heterodimer (P26010 20-723, chain 2 of 2): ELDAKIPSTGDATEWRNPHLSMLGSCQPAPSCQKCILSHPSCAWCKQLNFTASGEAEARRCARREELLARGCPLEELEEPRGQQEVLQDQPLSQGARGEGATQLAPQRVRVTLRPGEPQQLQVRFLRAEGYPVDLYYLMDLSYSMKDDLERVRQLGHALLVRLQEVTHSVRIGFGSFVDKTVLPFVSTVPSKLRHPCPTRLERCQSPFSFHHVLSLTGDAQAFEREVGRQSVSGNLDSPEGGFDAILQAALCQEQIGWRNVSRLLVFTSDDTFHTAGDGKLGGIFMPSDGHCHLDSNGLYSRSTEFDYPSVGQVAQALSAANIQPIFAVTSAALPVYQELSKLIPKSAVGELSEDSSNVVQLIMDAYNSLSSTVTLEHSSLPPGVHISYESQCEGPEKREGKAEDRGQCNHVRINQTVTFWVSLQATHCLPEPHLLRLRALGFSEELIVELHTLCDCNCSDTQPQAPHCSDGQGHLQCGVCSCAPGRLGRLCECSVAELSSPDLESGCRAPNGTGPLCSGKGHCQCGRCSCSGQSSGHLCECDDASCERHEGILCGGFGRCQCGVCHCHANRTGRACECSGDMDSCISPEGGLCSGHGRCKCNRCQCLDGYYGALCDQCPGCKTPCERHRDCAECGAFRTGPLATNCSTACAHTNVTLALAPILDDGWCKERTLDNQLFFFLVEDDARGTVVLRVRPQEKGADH

B1: HR7A1.Tr1 (ssDNA)
DNA: CAGCAAACCTGACCTCCTTACTAGATGCAACCCGACTACTAACGTCGTAAGAGAG
As to B1, the Kd in series [1] was 7.74 nM.

B2: Sgc4f (ssDNA)
DNA: ATCACTTATAACGAGTGCGGATGCAAACGCCAGACAGGGGGACAGGAGATAAGTGA
Take B2: the IC50 in [2] is above 3 fold excess.
Take CTCCTTACTAGATGCAACCCGACTACTAACGTCGTAAGAGAG (ssDNA) [HR7A1.Tr2]: the Kd in [1] came to 9.89 nM. In series [3], this molecule gave an IC50 of 3 nM.
As to CGCGCCGTACTAGATGCAACCCGACTACTAACGTCGTACGAGCGCG (ssDNA, PS at three terminal linkages of each end: C*G*C*GCC...GAGC*G*C*G) [HR7A1.Tr2.S2E2.PS3], the Kd in series [4] amounted to 3.2 nM.
Regarding CGCGCCGTACTAGATGCAACCCGACTACTAACGTCGTACGAGCGCG (ssDNA, PS at * : C*G*CGCCGTA*CTA*GA*TGCA*A*CCCGACTACTAA*CGTCGTACGAGCG*C*G) [HR7A1.Tr2.S2E2.PSA], the Kd in [5] is 9.6 nM.

B3: CD8.A3 (ssDNA)
DNA: ATCCAGAGTGACGCAGCAACAGAGGTGTAGAAGTACACGTGAACAAGCTTGAAATTGTCTCTGACAGAGGTGGACACGGTGGCTTAGT
Take B3: the binding result in series [6] and in series [7] was “no binding” in each case.

B4: HR7A1 (ssDNA)
DNA: ATCCAGAGTGACGCAGCAAACCTGACCTCCTTACTAGATGCAACCCGACTACTAACGTCGTAAGAGAGCCTGGACACGGTGGCTTAGT
For the molecule B4, the values for the Kd in [8] and in series [10] were 5.2 nM and 6.28 nM, respectively. The IC50 in [9] is 0.3 fold excess.

Source of the values: patent US20250020645, “A4B1 BINDING APTAMERS” (University of Washington, published 2025).
